T1: LRRC15 on the surface of LRRC15+ cells (SAOS-2, U87MG) (UniProt Q8TF66 22-581, limits assumed)
T1 sequence (looked up): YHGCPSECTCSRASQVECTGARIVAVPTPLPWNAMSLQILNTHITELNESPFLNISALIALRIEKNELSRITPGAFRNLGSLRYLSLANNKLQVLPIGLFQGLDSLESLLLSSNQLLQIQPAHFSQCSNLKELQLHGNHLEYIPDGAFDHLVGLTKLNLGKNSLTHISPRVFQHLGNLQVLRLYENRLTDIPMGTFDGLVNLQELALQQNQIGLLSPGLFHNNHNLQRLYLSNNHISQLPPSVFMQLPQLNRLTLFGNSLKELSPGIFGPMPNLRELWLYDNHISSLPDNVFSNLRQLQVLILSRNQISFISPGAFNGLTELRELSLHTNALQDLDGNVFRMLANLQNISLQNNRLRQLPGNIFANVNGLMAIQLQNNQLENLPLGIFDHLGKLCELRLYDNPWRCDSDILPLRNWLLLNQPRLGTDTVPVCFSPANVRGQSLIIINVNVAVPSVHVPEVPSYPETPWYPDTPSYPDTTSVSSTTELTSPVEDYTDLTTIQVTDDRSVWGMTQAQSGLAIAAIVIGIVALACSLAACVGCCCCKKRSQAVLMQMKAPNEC

T2: Human LRRC15 Protein, His Tag (Acro Biosystems) (human, UniProt Q8TF66 22-538, limits assumed)
T2 construct: not shown: His tag
T2 sequence (looked up): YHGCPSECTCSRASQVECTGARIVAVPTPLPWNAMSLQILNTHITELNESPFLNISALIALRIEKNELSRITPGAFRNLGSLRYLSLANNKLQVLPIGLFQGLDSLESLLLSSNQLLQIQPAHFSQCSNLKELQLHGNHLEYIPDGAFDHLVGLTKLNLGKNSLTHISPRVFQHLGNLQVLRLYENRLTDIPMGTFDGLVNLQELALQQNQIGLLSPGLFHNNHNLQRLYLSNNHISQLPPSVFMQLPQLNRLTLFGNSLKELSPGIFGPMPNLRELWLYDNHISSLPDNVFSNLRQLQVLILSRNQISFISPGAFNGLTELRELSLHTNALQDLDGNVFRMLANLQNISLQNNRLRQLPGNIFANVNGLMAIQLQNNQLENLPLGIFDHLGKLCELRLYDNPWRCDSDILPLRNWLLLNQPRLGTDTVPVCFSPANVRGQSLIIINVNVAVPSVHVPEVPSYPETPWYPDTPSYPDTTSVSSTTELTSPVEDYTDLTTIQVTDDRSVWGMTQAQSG

B1: MYT8500 (antibody, V domains shown)
VH: EVQLVESGGGLVQPGGSLRLSCTASGFSFSGSYWICWVRQAPGKGLEWVGCINGGSHDITYYASWAKGRFTISRDTSKNTVYLQKTSLRAEDTAVYYCASDTSYTAYGNFYFNLWGQGTLVTVSS
VL: EIVMTQSPSPLSASVGDRVIITCQSSQSVLNNNWLAWYQQKPGKAPKLLIYDASSLASGVPSRFSGSGSGAEFTLTISSLQPDDFATYYCQGEFSCGSADCNAFGQGTKLTVL
B2: MYT8094 (antibody, IgG1, V domains shown)
VH: EVQLVESGGGLVQPGGSLRLSCTASGFSFSSSHWICWVRQAPGKGLEWVGCIYAGSIGSTYYASWAKGRFTISRDTSKNTVYLQMNSLRAEDTAVYYCARAPNDIYNYYFNLWGQGTLVTVSS
VL: EIVMTQSPSTLSASVGDRVIITCQASENIYNYLAWYQQKPGKAPKLLIYYASTLASGVPSRFSGSGSGAEFTLTISSLQPDDFATYYCQSGYVSKSSTFGQGTKLTVL
B3: MYT9521 (antibody, V domains shown)
VH: B2 VH
VL: B2 VL with T53D
B4: MYT8391 (antibody, V domains shown)
VH: EVQLVESGGGLVQPGGSLRLSCTASGLDFRRTNYICWVRQAPGKGLEWVGCIYIADVVHYYASWAKGRFTFSRDTSKNTVYLQMNSLRAEDTAVYYCARGADGGFHYGMDLWGQGTLVTVSS
VL: EIVMTQSPSTLSASVGDRVIITCQASQSIGNYLSWYQQKPGKAPKRLIYSASTLPSGVPSRFSGSGSGAEFTLTISSLQPDDFATYYCQNNYWLAGYGHPFGQGTKLTVL
B5: MYT8416 (antibody, V domains shown)
VH: B4 VH with H106V
VL: B4 VL with W93H
B6: MYT9731 (antibody, V domains shown)
VH: B2 VH
VL: B2 VL with N28E
B7: MYT9724 (antibody, V domains shown)
VH: B2 VH with F110E
VL: B2 VL
notes: also called hu29F1 VH F110E
B8: MYT9725 (antibody, V domains shown)
VH: B2 VH with N111E
VL: B2 VL
notes: also called hu29F1 VH N111E
B9: MYT9726 (antibody, V domains shown)
VH: B2 VH with L112E
VL: B2 VL
notes: also called hu29F1 VH L112E
B10: MYT9716 (antibody, V domains shown)
VH: B2 VH with P102E
VL: B2 VL
notes: also called hu29F1 VH P102E
B11: MYT9722 (antibody, V domains shown)
VH: B2 VH with Y108E
VL: B2 VL
notes: also called hu29F1 VH Y108E
B12: MYT8483-c-ADC (antibody, human IgG1, kappa, V domains shown)
VH: B1 VH with H57L
VL: EIVMTQSPSPLSASVGDRVIITCQSSQSVLNNNWLAWYQQKPGKAPKLLIYDASSLASGVPSRFSGSGSGAEFTLTISSLQPDDFATYYCQGEFSCGSADCNAFGQGTKLTVLR
modifications: vcMMAE conjugated to the cysteine at position 205 of the light chain
B13: MYT9776-c-ADC (antibody, human IgG1, kappa, V domains shown)
VH: B1 VH with S32H, N53H
VL: B12 VL with T111E, V112I, L113K
modifications: vcMMAE conjugated to the cysteine at position 205 of the light chain
B14: MYT8415-c-ADC (antibody, human IgG1, kappa, V domains shown)
VH: B4 VH with H106V
VL: EIVMTQSPSTLSASVGDRVIITCQASQSIGNYLSWYQQKPGKAPKRLIYSASTLPSGVPSRFSGSGSGAEFTLTISSLQPDDFATYYCQNNHWLAGYGHPFGQGTKLTVLR
modifications: vcMMAE conjugated to the cysteine at position 205 of the light chain
B15: MYT8417-c-ADC (antibody, human IgG1, kappa, V domains shown)
VH: B4 VH with H106V
VL: B14 VL with H92Y, G96H
modifications: vcMMAE conjugated to the cysteine at position 205 of the light chain

Where a chain is given by its changes, count along the chain named. Names may count otherwise.

One assay deals with T1, LRRC15 on the surface of LRRC15+ cells …. The assay is described as follows: cell-based or functional assay.
In the case of B1, the “Internalization in U87MG cells (10 nM, 24 hours), FOB = fold over background (IgG control)” value was 2.65 fold over background (IgG control) and the “Internalization in U87MG cells (10 nM, 24 hours), FOS = fold over samrotamab” value is 1.93 fold over samrotamab.

As to B2, the “Internalization in U87MG cells (10 nM, 24 hours), FOB = fold over background (IgG control)” value was 3.52 fold over background (IgG control) and the “Internalization in U87MG cells (10 nM, 24 hours), FOS = fold over samrotamab” value is 2.94 fold over samrotamab.

As for B3, the “Internalization in U87MG cells (10 nM, 24 hours), FOB = fold over background (IgG control)” value was 3.42 fold over background (IgG control) and the “Internalization in U87MG cells (10 nM, 24 hours), FOS = fold over samrotamab” value was determined as 2.82 fold over samrotamab.

As for B4, the “Internalization in U87MG cells (10 nM, 24 hours), FOB = fold over background (IgG control)” value is 3.13 fold over background (IgG control) and the “Internalization in U87MG cells (10 nM, 24 hours), FOS = fold over samrotamab” value is 2.49 fold over samrotamab.

As to B5, the “Internalization in U87MG cells (10 nM, 24 hours), FOB = fold over background (IgG control)” value is 3.05 fold over background (IgG control) and the “Internalization in U87MG cells (10 nM, 24 hours), FOS = fold over samrotamab” value was 2.39 fold over samrotamab.

For the next assay the target is unchanged. The assay is described as follows: cell-based or functional assay. The source holds these as a separate data set.
On to B1, for which the “Cytotoxicity against SAOS-2 cells, Fold over MYT5438 (mAb complexed with MMAF-conjugated secondary antibody, CTG assay)” value (“Cytotoxicity against SAOS-2 cells, Fold” for short) was 1.06 fold over MYT5438.

Take B2: the “Cytotoxicity against SAOS-2 cells, Fold” value amounted to 1.45 fold over MYT5438.

For B3, the “Cytotoxicity against SAOS-2 cells, Fold” value turned out to be 1.49 fold over MYT5438.

Take B6: the “Cytotoxicity against SAOS-2 cells, Fold” value came to 1.05 fold over MYT5438.

Consider B4, for which the “Cytotoxicity against SAOS-2 cells, Fold” value came to 1.14 fold over MYT5438.

With B5, the “Cytotoxicity against SAOS-2 cells, Fold” value turned out to be 1.13 fold over MYT5438.

The next assay has the same target. The assay is described as follows: cell-based or functional assay. This is another data set of the same source.
In the case of B1, the “Internalization in SAOS-2 cells (10 nM, 24 hours), FOB = fold over background (IgG control)” value is 2.68 fold over background (IgG control) and the “Internalization in SAOS-2 cells (10 nM, 24 hours), FOS = fold over samrotamab” value is 1.03 fold over samrotamab.

Take B2: the “Internalization in SAOS-2 cells (10 nM, 24 hours), FOB = fold over background (IgG control)” value was 3.15 fold over background (IgG control) and the “Internalization in SAOS-2 cells (10 nM, 24 hours), FOS = fold over samrotamab” value is 1.32 fold over samrotamab.

On to B3, for which the “Internalization in SAOS-2 cells (10 nM, 24 hours), FOB = fold over background (IgG control)” value is 3.02 fold over background (IgG control) and the “Internalization in SAOS-2 cells (10 nM, 24 hours), FOS = fold over samrotamab” value amounted to 1.24 fold over samrotamab.

B4: the “Internalization in SAOS-2 cells (10 nM, 24 hours), FOB = fold over background (IgG control)” value was 2.94 fold over background (IgG control) and the “Internalization in SAOS-2 cells (10 nM, 24 hours), FOS = fold over samrotamab” value came to 1.2 fold over samrotamab.

As for B5, the “Internalization in SAOS-2 cells (10 nM, 24 hours), FOB = fold over background (IgG control)” value was 2.71 fold over background (IgG control) and the “Internalization in SAOS-2 cells (10 nM, 24 hours), FOS = fold over samrotamab” value came out at 1.05 fold over samrotamab.

The next assay addresses T2, Human LRRC15 Protein, His Tag (Acro …). The assay is described as follows: BLI; dissociation pH 7.4 black, pH 5.4 grey [2/2); D00026 FIG. 6B (2/2]. On the technique in general: BLI is a label-free optical method that tracks binding on a fibre tip over time.
As for B7, the binding result is “binds”.

B8: the binding result is recorded as “binds”.

Turning to B9, the binding result is “binds”.

For B10, the binding result is given as “binds”.

B11: the binding result is “binds”.

In the next assay the target is T1, LRRC15 on the surface of LRRC15+ cells …. The assay is described as follows: cell-based or functional assay. The source holds these as a separate data set.
Take B12: the “20 nM Efficacy (cytotoxicity of candidates against SAOS-2 cells)” value (“20 nM Efficacy” for short) is 29.4.

On to B13, for which the “20 nM Efficacy” value is 66.3.

In the case of B14, the “20 nM Efficacy” value amounted to 38.7.

On to B15, for which the “20 nM Efficacy” value amounted to 42.5.

The values are drawn from patent US20250352661A1 (MYTHIC THERAPEUTICS, published 2025).
